Test results reported in patent US20260015405A1 (TRANSGENE, published 2026).

B1: construct encoded by pTG20041: [N-terminus]-[collagen domain(12bis)]-[coiled-coil neck domain]-[CD40L] (ligand)
chain: AEMKTYSHRTMPSACTLVMCSSVESGPLGKQGNIGPQGKPGPKGEAGPKGEVGAPGMQGSADVASLRQQVEALQGQVQHLQAAFSQYKKVENPQIAAHVISEASSKTTSVLQWAEKGYYTMSNNLVTLENGKQLTVKRQGLYYIYAQVTFCSNREASSQAPFIASLCLKSPGRFERILLRAANTHSSAKPCGQQSIHLGGVFELQPGASVFVNVTDPSQVSHGTGFTSFGLLKL
notes: Tested as clarified HeLa supernatant
B2: construct encoded by pTG20042: [N-terminus]-[collagen domain(30)]-[coiled-coil neck domain]-[CD40L] (ligand)
chain: AEMKTYSHRTMPSACTLVMCSSVESGLPGRDGRDGREGPRGEKGDPGLPGAAGQAGMPGQAGPVGPKGDNGSVGEPGPKGDTGPSGPPGPPGVPGPAGREGPLGKQGNIGPQGKPDVASLRQQVEALQGQVQHLQAAFSQYKKVENPQIAAHVISEASSKTTSVLQWAEKGYYTMSNNLVTLENGKQLTVKRQGLYYIYAQVTFCSNREASSQAPFIASLCLKSPGRFERILLRAANTHSSAKPCGQQSIHLGGVFELQPGASVFVNVTDPSQVSHGTGFTSFGLLKL
notes: as for B1
B3: construct encoded by pTG19967: [N-terminus]-[coiled-coil neck domain]-[linker]-[CD40L] (ligand)
chain: AEMKTYSHRTMPSACTLVMCSSVESDVASLRQQVEALQGQVQHLQAAFSQYKKVEGGGSGGGSGGGSNPQIAAHVISEASSKTTSVLQWAEKGYYTMSNNLVTLENGKQLTVKRQGLYYIYAQVTFCSNREASSQAPFIASLCLKSPGRFERILLRAANTHSSAKPCGQQSIHLGGVFELQPGASVFVNVTDPSQVSHGTGFTSFGLLKL
B4: construct encoded by pTG19966: [N-terminus]-[coiled-coil neck domain]-[CD40L] (ligand)
chain: AEMKTYSHRTMPSACTLVMCSSVESDVASLRQQVEALQGQVQHLQAAFSQYKKVENPQIAAHVISEASSKTTSVLQWAEKGYYTMSNNLVTLENGKQLTVKRQGLYYIYAQVTFCSNREASSQAPFIASLCLKSPGRFERILLRAANTHSSAKPCGQQSIHLGGVFELQPGASVFVNVTDPSQVSHGTGFTSFGLLKL
notes: Tested as clarified HeLa supernatant, oligomeric state mixed; It was detected by anti-FLAG immunoblot
B5: construct encoded by pTG19969: [N-terminus]-[collagen domain(12)]-[coiled-coil neck domain]-[linker]-[CD40L] (ligand)
chain: AEMKTYSHRTMPSACTLVMCSSVESGQAGPVGPKGDNGSVGEPGPKGDTGPSGPPGPPGVPDVASLRQQVEALQGQVQHLQAAFSQYKKVEGGGSGGGSGGGSNPQIAAHVISEASSKTTSVLQWAEKGYYTMSNNLVTLENGKQLTVKRQGLYYIYAQVTFCSNREASSQAPFIASLCLKSPGRFERILLRAANTHSSAKPCGQQSIHLGGVFELQPGASVFVNVTDPSQVSHGTGFTSFGLLKL
B6: construct encoded by pTG19325: fusion protein SPD (M1-G257, P35247 numbering)-CD40L (H47 to L261 from P29965 numbering) (ligand)
chain: AEMKTYSHRTMPSACTLVMCSSVESGLPGRDGRDGREGPRGEKGDPGLPGAAGQAGMPGQAGPVGPKGDNGSVGEPGPKGDTGPSGPPGPPGVPGPAGREGPLGKQGNIGPQGKPGPKGEAGPKGEVGAPGMQGSAGARGLAGPKGERGVPGERGVPGNTGAAGSAGAMGPQGSPGARGPPGLKGDKGIPGDKGAKGESGLPDVASLRQQVEALQGQVQHLQAAFSQYKKVELFPNGHRRLDKIEDERNLHEDFVFMKTIQRCNTGERSLSLLNCEEIKSQFEGFVKDIMLNKEETKKENSFEMQKGDQNPQIAAHVISEASSKTTSVLQWAEKGYYTMSNNLVTLENGKQLTVKRQGLYYIYAQVTFCSNREASSQAPFIASLCLKSPGRFERILLRAANTHSSAKPCGQQSIHLGGVFELQPGASVFVNVTDPSQVSHGTGFTSFGLLKL
notes: Tested as clarified, unpurified supernatant of infected/transfected HeLa cells; concentration unknown; The construct begins at M1 of SPD, so the entry may include the native signal peptide; The form range is that of the CD40L part
B7: construct encoded by pTG20038: [N-terminus]-[collagen domain(6 + N-Gly)]-[coiled-coil neck domain]-[CD40L] (ligand)
chain: AEMKTYSHRTMPSACTLVMCSSVESGQAGPVGPKGDNGSVGEPDVASLRQQVEALQGQVQHLQAAFSQYKKVENPQIAAHVISEASSKTTSVLQWAEKGYYTMSNNLVTLENGKQLTVKRQGLYYIYAQVTFCSNREASSQAPFIASLCLKSPGRFERILLRAANTHSSAKPCGQQSIHLGGVFELQPGASVFVNVTDPSQVSHGTGFTSFGLLKL
notes: as for B1
B8: construct encoded by pTG20039: [N-terminus]-[collagen domain(6 - N-Gly)]-[coiled-coil neck domain]-[CD40L] (ligand)
chain: AEMKTYSHRTMPSACTLVMCSSVESGPKGDTGPSGPPGPPGVPDVASLRQQVEALQGQVQHLQAAFSQYKKVENPQIAAHVISEASSKTTSVLQWAEKGYYTMSNNLVTLENGKQLTVKRQGLYYIYAQVTFCSNREASSQAPFIASLCLKSPGRFERILLRAANTHSSAKPCGQQSIHLGGVFELQPGASVFVNVTDPSQVSHGTGFTSFGLLKL
notes: as for B1
B9: construct encoded by pTG19968: [N-terminus]-[collagen domain(12)]-[coiled-coil neck domain]-[CD40L] (ligand)
chain: AEMKTYSHRTMPSACTLVMCSSVESGQAGPVGPKGDNGSVGEPGPKGDTGPSGPPGPPGVPDVASLRQQVEALQGQVQHLQAAFSQYKKVENPQIAAHVISEASSKTTSVLQWAEKGYYTMSNNLVTLENGKQLTVKRQGLYYIYAQVTFCSNREASSQAPFIASLCLKSPGRFERILLRAANTHSSAKPCGQQSIHLGGVFELQPGASVFVNVTDPSQVSHGTGFTSFGLLKL

Molecular target: T1, CD40-Fc (immobilized recombinant human CD40) (human, UniProt P25942 21-193, limits assumed)
T1 construct: Coated on the ELISA plate
Assay: ELISA, CD40-Fc coated, HeLa supernatant, detection with non-competitive anti-CD40L

T1 sequence (P25942 21-193 limits assumed): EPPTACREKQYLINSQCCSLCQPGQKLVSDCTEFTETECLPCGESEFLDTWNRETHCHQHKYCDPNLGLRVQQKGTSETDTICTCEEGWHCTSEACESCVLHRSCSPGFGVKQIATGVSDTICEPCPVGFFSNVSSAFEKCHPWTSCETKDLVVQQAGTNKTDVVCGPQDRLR

Question: Does B1 bind?
Answer: Result: binds

Question: Does B2 bind?
Answer: Result: binds

Question: Does B3 bind?
Answer: Result: binds

Question: Does B4 bind?
Answer: Result: binds

Question: Does B5 bind?
Answer: Result: binds

Question: Does B6 bind?
Answer: Result: binds

Question: Does B7 bind?
Answer: Result: binds

Question: Does B8 bind?
Answer: Result: binds

Question: Does B9 bind?
Answer: Result: binds
